Data reported in the supplement of paper PMC9170038.

System: K4 kissing-loop RNA reporter
Assay: apparent KD of K4 kissing-loop reporter; higher = weaker reporter binding
Conditions: Eterna round: R107; input ligand: theophylline 20 uM
Method: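 RNA-MaP round R107: designed RNA switches with theophylline, tryptophan, arginine or FMN aptamers are transcribed on-chip within common flanks. They are titrated with a labelled K4 kissing-loop RNA reporter in RNA-MaP buffer (100 mM Tris pH 7.5, 80 mM KCl, 4 mM MgCl2), without ligand or with the indicated ligand. Median apparent KD per design.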
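Note: bound reporter read as fluorescence of individual clusters on recovered sequencing chips by microscopy, with normalized cluster intensities fitted with a binding model.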

Sequence	apparent KD of K4 kissing-loop reporter
CGCAGUGAUGUUGCGAGUAGCUACAGGGAAGGAGCGCUUUAGUAAGCAGGUAGGUCGCCCACGCAGUGAUGUUGCGUCAUAGGGU [Exclusion Arginine A GF 19]	109 nM
CGCUGGGCGAGUGAUGUUCGCUCACGUGAUACCAGUGCCAUCCAACACCCUUGGCAGCACGCGGGCAGUGAUGUUGUCCUUAGUG [Exclusion Theophylline A GF8]	125 nM
UUUCGUUGAAGUGAUACCAGACUUGAAAGUGAUGUUUUCCAAUAAAUUAAAUUAUUAGCUGUCCCUUGGCAGCACAGUUUAUUUA [JR_ExcTheophyB_Sub006]	389 nM
UAACUGCAGUGAUGUUGCAGAUGUCCUGACUAGGAUAUCAGGAAACUGAGAAGGAGUCCCUUCUAAACAUCACAGAAGGAGGACA [[K1]-[K2]-[F1]'-[F1]-[F2]-[F2]'-[K]'-[F]''_Design2]	508 nM
GGUCGAGUGAUGUUCGAUGUAGUGCAUUCAGAGGAUAUAGGAUUGGCUAGAAGGCUGAAACCUUCUUCGAGUGAUGUUCGAGGAU [Same State FMN A GF5]	90.1 nM
UAACUCUUGCAGUGAUGUUGCAAGUAAGCUCAGGAUAUCAGGAAACUGAGAAGGGAGCAUCCUGAGCUUCUGCAAGAGCUCAGAA [KL-SSFMN-A4]	217 nM
CGCGUUGGUUGAGAGGUUGGCGCGAAUGAUACCAGUAUAUAAGAAUACCCUUGGCAGCAUAAGAAAGAUAUAGUGAUGUUGUAUA [SSTheophA.I]	289 nM
AUUUAUUCGUACUUUCAGUGAUGUUGAUAACGAGGACCGGUACGGCCGCCACUCGAUUUGGCGAUUUUGUAUUUUUUAUUCUAUA [JR_SSTryptoA_Sub010]	415 nM
UGUAUGUGAUUUGAUACCAGACCAUCUUGUGAGAAGUGAGUGAUGUUUAUUUUGGUUUGGGUCCCUUGGCAGCAAAUCGCAUACU [KL-SSTheoB23]	619 nM
CCAGCAAAGCUGGUCGCCAAACAACGGGCACGAGGACCGGUACGGCCGCCACUCGUGAGGACGAGUGAUGUUCGUUCACGGGCGA	602 nM
UGAUACCAGACGGCCGCCACUUCCGCAAGUCAAAGACUUGCCAAGGGAAUCGUCCAGUGAUGUUGGAGGACCGGGUCUGGUAUCU [FiskerMod 4 - Jieux - Exclusion - Tryptophan B]	525 nM
UUUUUAUGCAGUGAUGUUGCUAAUAUAACAGAGGAUAUGCAUUAAUGCAGAAGGCUGAAAUACUAUACUUUAAUAUAUUAAAUUU [JR_SSFMNA_Sub015]	155 nM
GAGCGGUAGAGGCUACCGCUAUUCUGAGAAGGAGCGCAGAUGACUGCAGGUAGGUCGCUUAGAGCUUGCAGUGAUGUUGCAAGUU [Inzarier]	181 nM
UGGAUAUAGUGAUGUUAUAUAGAGAGGGAUACCAGUUUAGAGAAGAACCCUUGGCAGCCUAAAGAAGUAUCAUUAGAGAAGAAUG [ExTheophyl.An]	324 nM
ACGUAGUUCUAGGAUACCAGCCAAGGAGCGCAGGACAAAAGUCCUGCCGCCAGUGAUGUUGGCCCUUGGCAGCCUAGAACUACGA [Omei KL Theo B Exc B v1]	165 nM
CCAUUCUUUUACGAUACCAGUCUAAUAUAUUUAAUCAAAACCCUCGCCGAGUGAUGUUCGGACCCUUGGCAGCGUCUGCGAGAGG [ettyxtkmullin]	603 nM
UCUGCAAAGUCGGCCGCCACUCCGGGCCCUAUAAAUGGGCGCAGUGAUGUUGCGGCUAGGCCUCUGAGGACCGGGACUUUGUAGA [Atlesoqu]	132 nM
GCCGUAGAUUGAAGGAGCGGGCCGUAGUGAUGUUACGCCAAGUUGUCUUUUAUUGAUGUGGCCCAGGUAGGUCGCAAUCUACGGC	217 nM
GCCGUAGAUUGAAGGAGCGUUCUUACUGAUUACGGCAGCCGGAAGUGAUGUUUCCAGGUGGAACAGGUAGGUCGCAAUCUACGGC	99.8 nM
GGCCGCAAGGCGAGCGCUCCCACUCCGGAAGGAGCGCCCGCAAGGGCAGGUAGGUCGCCGGAGUGAUGUUCCGGUGGAGGGCUCG [#2 Exclusion - Arginine A Attempt #16 (Inspired by Omei)]	127 nM
AGAUGACAGGGAGGAUAUCCUAAUAUGGGUGAUGUUAGCGAUGUUGAAGGUGUAGUGAUGUUAUGCGGAGAAGGCCCUGUUGUUU [BDazzled - #23 - Exc. FMN B]	78.7 nM
GUGAAGGAGCUGCAGUGAUGUUGCAGAGACUAGGAUAUCAGGAAACUGAGAAGGAGUCAACUCCUUCACCUAGACAACAUCACUA [[F]''-[K1]-[K2]-[F1]-[F2]-[F2]'-[F1]'-[K]'_Design2]	269 nM
GCUAUGGUAGGAAGGAGCGCUUACUCGUUAAUAAGAGUGAUGUUCGAUAACGAGUAUUUAUAGCAGGUAGGUCGCCUACUAUAGC [Arginine B K4 4]	242 nM
ACGUAGUUCUAGGAUACCAGCCAAGGUCGCCAGGACAAAAGUCCUGGCGCCAGUGAUGUUGGCCCUUGGCAGCCUAGAACUACGA [Omei KL Theo B Exc B v6]	174 nM
GUCCAUGUCCUCAUUCGUGCACUGGACACCAAGGAUAUGUUUAUGGACAGAAGGUGGUUGGGUCAGUGAUGUUGAUAUAAUUAGU [theeternabot_exclusion_KL_FMN_A_24]	406 nM
UAUACACAGGGAGGAUAUGCCCACACAACAACCGAGUGAUGUUCGGACAAUACACAUAAUACACGGGCAGAAGGCCCACAUCACA [SS FNM B Tesla 1]	192 nM
AAUAAGUGUCAGCGAGUGAUGUUCGACGAUACCAGACUCGAUAGAGUCCCUUGGCAGCGUAACGCAUGCCAAACUGGCACAAUAA [#SwitchBubble 8 #K4Early]	507 nM
